According to article PMC10410066:

Molecular target: inhibitor of nuclear factor kappa B kinase subunit beta (IKBKB), FLAG-tagged (UniProt O14920)
Assay: TR-FRET protein-protein interaction assay (2B7-Tb/anti-FLAG-D2)
Details: peak of the lysate titration curve (mutant peak at about 3 ug/well, WT peak at about 5 ug/well); HEK293T lysates; parent: est. 0.30; read off a plot

N571 Q55 HTT (N-terminal huntingtin fragment 1-571 with 55 glutamines) S13A; S16A
response (Fluorescence Ratio (665/615)): 0.26
